Assay: soluble on expression in E. coli; label from the status in PepcDB or PDB records

Sequence | soluble on expression in E. coli
MKRIVVKVGSHVISEENTLSFERLKNLVAFLAKLMEKYEVILVTSAAISAGHTKLDIDRKNLINKQVLAAIGQPFLISVYNELLAKFNKLGGQILLTGKDFDSRKATKHAKNAIDMMINLGILPIINENDATAIEEIVFGDNDSLSAYATHFFDADLLVILSDIDGFYDKNPSEFSDAKRLEKITHIKEEWLQATIKTGSEHGTGGIVTKLKAAKFLLEHNKKMFLASGFDLSVAKTFLLEDKQIGGTLFE | soluble
MDFLKQPCAPLDFDLSREQIEGMLRSARFIKGSFSTRVVGHLPIDNSFRQVSVAIENETSSSIEIMTLERGDTFCGIPLKQRKIPFQNSLKSADIDFTYDDSGIDLTNAPVSFFIEGGRVASICWHHKHRN | not soluble
MGNGMTKVLPGLYLGNFIDAKDLDQLGRNKITHIISIHESPQPLLQDITYLRIPVADTPEVPIKKHFKECINFIHCCRLNGGNCLVHCFAGISRSTTIVTAYVMTVTGLGWRDVLEAIKATRPIANPNPGFRQQLEEFGWASSQKLRRQLEERFGESPFRDEEELRALLPLCKRCRQGSATSASSAGPHSAASEGTVQRLVPRTPREAHRPLPLLARVKQTFSCLPRCLSRKGGK | soluble
MNQKAVILDEQAIRRALTRIAHEMIERNKGMNNCILVGIKTRGIYLAKRLAERIEQIEGNPVTVGEIDITLYRDDLSKKTSNDEPLVKGADIPVDITDQKVILVDDVLYTGRTVRAGMDALVDVGRPSSIQLAVLVDRGHRELPIRADYIGKNIPTSKSEKVMVQLDEVDQNDLVAIYENE | soluble
MGSDKIHHHHHHMIKVEIDEGSGFCFGVVTAIHKAEEELAKGETLYCLGDIVHNSREVERLKAMGLITINRDEFRQLRNAKVLLRAHGEPPETYQIAHKNNIEIIDATCPVVLRLQKRIKQEFRKEDFEEKQIVIYGKNGHAEVLGLVGQTGGQAIVIESAEEAKKLDFTKSIRLFSQTTKSLDEFQEIVEYIKLHISPDATFEYYDTICRQVANRMPNLREFAATHDLIFFVSGKKSSNGKMLFEECLKVNANSHLIDNEKEIDPTLLRNVKSIGVCGATSTPKWLMEKIHDHIQLLIKD | not soluble
MGSDKIHHHHHHMAGRFDAFVLFAEMRTGSNYLEDSLNTFADINCLGEVFNPTFIGHDNNFEMLGYDMDRREHDPLGLLDAIIDTVDGLPGFRLFHDHDTRVVDRVLPDPRIAKVILTRNPLDSYVSRKIATATGQWKLTDMKHAKTAQIRFDADEFGALLDAVLPFQEYVRQGLLKSGQVAFQVRYEDINDPEMLNGLAAFLGSDERVERASKTLKRQNPAPLRDKVENYEEMVAALSDLDRFGLDKLPELEPDRGAQVPNFVAHPTLGLLFCPIKGAPEKSVLNWMGALGDVGKDALIRKMTQKQLRQWMKDNPGFRSFTVLRHPVVRAYTVFNRFILPDDRPAYADPRKTLRQRYKVPIPENAPGDGWTEAEQKAAFQGFIFFLKGNLAGQTSVRVDQAWATQTAILQGTSSVMVPQAVIHEDHMTEALPALAHQVGAEDVPQVVEEAMPGLHKLKSIYDGKIEQALIDTYRRDYVGFGFPRWNKR | not soluble
MKKIALAVLSLGLLVSGCSAGADKDEKVAEKSGKAKEQSVVPKYAISDEYYKTTIPFDGGNARGLVVQGLNSRLDIDEFETGLMRIAKESFSTKDNFLKGGKALDTQTIQMLVKRKRTDAEQKELEDKLKKDAVKFPNIGLNPALGTGSESLEVKNKKNPIYISNILEHDYYVKKGDNGEERVGMVVGLAMNSVQYFNEEHGYPREAAIPDEKMLAEGKKMAQEILKVIHQKEPETKNIPITFAIYRQAPKSSLVPGNFVSYANVEKGSETVEDWQQINEKYYLFPSEQAKTDNKREDLARVSNFKAKLSDYFQGDYTAVIGTGMYRDDELREMKLDIPVQFNGKAEIVGFTQYVAGLVMEYFPNYMKVQVTIKSVERPEAIIIREAKQDEPLVKILD | not soluble
MGSDKIHHHHHHMQLSAMFVHPVKSCRGIAFDRAYAGKLGLLHDREWLLVSPDGQQITARAHPKLVTIRVELLPGGALLHHSGKAPIFAMATAYTRPHPAQVWKDGFQAWHGDERVDAWFADILGCDCRLLWLGAQSNRPFKGGPETMSFADGYPFLLASQASLDDLNRQLAAPVTLRHFRPNLVVSGAYPWEEDEWQVIRIGDVEFDVVKPCVRCVLTTVDPELGEKRADGEPLQTLIRTRMLDAGVCFGMNLRARNEGVLELGAPVEVLEQRYSF | not soluble
MGSDKIHHHHHHMNFQIVINNIQHIGYAELDVDLNASGIICIVGKNGVGKTTLIKAILNLKSADTFSRTASPGIFKANSSMRCTYGENSYEFSFDSDINDLNSRSPIPEELKSVIDVELPMPFGQRFNNYQNIMSADMDIRTALILGEYEVPVELISFLSDIYKTNKFNGLVEVSAKGGSYYCIPLDDDRYVREDHLSSGEFFLISLYRKIKGRSKFIVIDEIDISLDAAAQAHLIGWLRRFCTTEQVKVVFTTHSLALMRTLKDGELFYMEESEGKVSVIPSSYNYIKSVLFGFKGWDRYILTEDAMLKSLLEYVLANYCSGLFFSYQIIHVGGGSNVVDLMRQNSTEGFFSTPENVISVLDGDQAEYRYARRPNVYCIPFLSVEKAIFAEYKAGRFLPELAPDPRFDTPKNFCSAIGRDRHATEADIIKYLCDSYPTEVRRFAQTLSDFLS | not soluble
ISEFMSDITVTNWAGNITYTAKELLRPHSLDALRALVADSARVRVLGSGHSFNEIAEPGDGGVLLSLAGLPSVVDVDTAARTVRVGGGVRYAELARVVHARGLALPNMASLPHISVAGSVATGTHGSGVGNGSLASVVREVELVTADGSTVVIARGDERFGGAVTSLGALGVVTSLTLDLEPAYEMEQHVFTELPLAGLDPATFETVMAAAYSVSLFTDWRAPGFRQVWLKRRTDRPLDGFPYAAPAAEKMHPVPGMPAVNCTEQFGVPGPWHERLPHFRAEFTPSSGAELQSEYLMPREHALAALHAMDAIRETLAPVLQTCEIRTVAADAQWLSPAYGRDTVAAHFTWVEDTAAVLPVVRRLEEALVPFAARPHWGKVFTVPAGELRALYPRLADFGALAGALDPAGKFTNAFVRGVLAG | soluble
MGSDKIHHHHHHMNDTPPPPSCARCSAVWQKSGTTNCWSNPDNRPGRPADCPSSAHGDIVASSFDEYRGESDDARLARVAARVEGLCYRKMTGSDAVVARWTRVEDTIALAKLMGWSKVGIATCIGLLDETRQLATILEAQGLEPVSVCCKAGSIDKLELGLDESDKVRPGTFEPACNPVAQAEVLNRCGTHMNIIVGLCVGHDMLFTKHSAAPVTTLVCKDRVTGHNPVAVLYGQNFYFKRLQKMPIDIPEGEE | not soluble
MAEQLEFFPVASPCRGICQSDERGFCRGCMRSRDERFNWQKMSDVEKQNVLRLCRQRFLRKIRANKPLPSEDPQQPSLF | not soluble
MGSRTGSREEHSLQFLNLTKMTTTTASNLPWVEKYRPSKLDELVAHEQIVKTLTKFIENRTLPHLLFYGPPGTGKTTTVLAAARQMYSPTKMASMVLELNASDERGIDVVRNTIVNFAQTKGLQAFSTSSNTGTVPFKLVILDEADAMTKDAQNALRRLDKTDYEQNIIIHNVNIYFRVIEKYTDNVRFCIICNYLASIVPAIQSRCTRFRFAPLDQKLIVPRLEYIVETEQLKMTPDGKDALLIVSKGDMRTVINTLQSTAMSFDTVSENTVYQCIGQPTPKEMKEVVKTLLNDPSKKCMNTIQTKLFENGYALQDVITHLHDFVFTLDIPDEAMSAIITGLGEVEENLSTGCSNETQLAAVVAAFFEAKRLCVKEMKNLEIEDMEF | not soluble
MVDIEPDRVYVFTPDGHAIDLPKNATPLDFAYRVHTEIGHNCRGAKINGRIVPLNYSLQTGEQVEIITSKHGTPSRDWLEHHHHHH | not soluble
MDWHCVSPDGCERSEELQRIDRAYSTDYEWEFASTVDDSFEEYAMRILTDSLGSGCAWLYDLTLLGYNLQRSRQCYTVAGFELELSIPNEDPATFSEWVVVGRDIDVLGEE | not soluble
MSNSSMSVVILAAGKGTRMYSDLPKVLHPLAGKPMVQHVIDAAMKLGAQHVHLVYGHGGELLKKTLADPSLNWVLQAEQLGTGHAMQQAAPHFADDEDILMLYGDVPLISVDTLQRLLAAKPEGGIGLLTVKLDNPSGYGRIVRENGDVVGIVEHKDASDAQREINEINTGILVANGRDLKRWLSLLDNNNAQGEFYITDIIALAHADGKKIATVHPTRLSEVEGVNNRLQLSALERVFQTEQAEKLLLAGVMLLDPSRFDLRGELTHGRDITIDTNVIIEGHVILGDRVRIGTGCVLKNCVIGDDSEISPYTVLEDARLDANCTVGPFARLRPGAELAEGAHVGNFVEIKKARLGKGSKAGHLSYLGDAEIGAGVNIGAGTITCNYDGANKFKTIIGDDVFVGSDTQLVAPVTVANGATIGAGTTVTRDVAENELVISRVKQVHIQGWKRPVKKK | soluble
MLALSRGRYLARPAAGLEDLRRAQELRWLAFHARRAGSGASGLDADRFDGACSHMLIEEAESGALVGCFRFLTFASGREIGRSYSAQFYELSALEGFAGPMVEMGRFCIHPDRRDPDILRVAWGALTQHVDRAGIEMLFGCSSFHGTEPEAYLDTFAMLKERHLAPPRWLPRVKAASVYRFAQRLARREPDARRAMLQMPPLLRTYLMMGGWVSDHAVVDREMDTLHVFTGLEIGAIPARRARALRAVAG | not soluble
MSLKGKITLFFTALCFGLTGCIAPPKGLEKERFSINSYREISPQDLTCHCKTVRLGGKIVNTTVLANQTKIEVLSLPVSSISAKPFVELQSDGRFIVYFNGFVEPENLKERYITVGGQLAGTEKGKIEQADYTYPVVQADKYRIWTLSTTYDYPTDDWDEDDDWGFFRWRHRLWYVQPEIHYYLNEGGSHHHHHH | soluble

Source: the DeepSol protein solubility set
